# Values quoted from earlier work, collected in article PMC9238359.
# What was measured:
# Assay in all cases: ITC
# STX4 soluble (lacks TMD) = STX4 soluble (lacks TMD) (UniProt Q12846)
# STX4 N-terminal peptide = STX4 N-terminal peptide (UniProt Q12846)
# [1] = target: STX4 soluble lacking N-terminal peptide (UniProt Q12846)
substance,measurement,setting,value
Munc18c (from UniProt O00186),Kd,STX4 soluble (lacks TMD),12 nM
same,Kd,STX4 N-terminal peptide,1500 nM
same,Kd,[1],735 nM
